In patent US20040072266A1, “Method of modifying cell motility via compounds and polypeptides that interact with a Wnt pathway” (priority 2002, published 2004):

System: NIH3T3 cells
Experiment: Wnt conditioned media treatment of NIH3T3 cells, phalloidin actin staining, protrusion/filopodia count
Assay type: cell-based, mouse
Conditions: NIH3T3 cells on fibronectin treated cover slips, 15 minutes in conditioned media, Alexa568 phalloidin staining
Method: FIG. 1: Wnt treatment increases the protrusive activity of NIH3T3 cells. NIH3T3 cells were plated at low density on fibronectin treated cover slips. After being allowed to re-attach for 12 hours, cells were placed into media that was pre-conditioned either by control 293T cells (A), 293T cells expressing Wnt1 (B) or 293T cells expressing Wnt5a (C and D). After 15 minutes in conditioned media, cells were fixed and stained with Alexa568 conjugated phalloidin to label the actin cyto-skeleton. Wnt treated cells contained higher numbers of actin based protrusions relative to control. These included filopodia (arrows in B and C) as well as membrane ruffles (arrows in D). E. The number of filopodia per cell was counted for NIH3T3 cells treated as described above. […] Columns represent the average number of filopodia per cell. N=50, 80, 76 cells for control, Wnt1 and Wnt5a, respectively. Error bars represent the standard error of the mean for each group shown.
We can use Wnt conditioned media as a source of Wnt polypeptides and fragments of them in testing the ability of a cell to modify its cell motility characteristics. […]
In FIG. 1, we show the […] after the Wnt treatment. […] The degree of motility can be measured through the number of filopodia, for example, or through assyas that measure the levels or increases in cytoskeletal proteins. […]

B1: Wnt5a: Wnt polypeptide supplied as media pre-conditioned by 293T cells expressing Wnt5a (mouse Wnt 5A per b63) (protein, UniProt P22725 62-380, looked up)
Protein Wnt-5a: IIGAQPLCSQLAGLSQGQKKLCHLYQDHMQYIGEGAKTGIKECQYQFRHRRWNCSTVDNTSVFGRVMQIGSRETAFTYAVSAAGVVNAMSRACREGELSTCGCSRAARPKDLPRDWLWGGCGDNIDYGYRFAKEFVDARERERIHAKGSYESARILMNLHNNEAGRRTVYNLADVACKCHGVSGSCSLKTCWLQLADFRKVGDALKEKYDSAAAMRLNSRGKLVQVNSRFNSPTTQDLVYIDPSPDYCVRNESTGSLGTQGRLCNKTSEGMDGCELMCCGRGYDQFKTVQTERCHCKFHWCCYVKCKKCTEIVDQFVCK
modifications: conditioned medium from 293T cells
number of filopodia per cell relative to control: significant increase

B2: Wnt1: Wnt polypeptide supplied as media pre-conditioned by 293T cells expressing Wnt1 (mouse Wnt 1 per b63) (protein, UniProt P04426 28-370, looked up)
Proto-oncogene Wnt-1: ANSSGRWWGIVNIASSTNLLTDSKSLQLVLEPSLQLLSRKQRRLIRQNPGILHSVSGGLQSAVRECKWQFRNRRWNCPTAPGPHLFGKIVNRGCRETAFIFAITSAGVTHSVARSCSEGSIESCTCDYRRRGPGGPDWHWGGCSDNIDFGRLFGREFVDSGEKGRDLRFLMNLHNNEAGRTTVFSEMRQECKCHGMSGSCTVRTCWMRLPTLRAVGDVLRDRFDGASRVLYGNRGSNRASRAELLRLEPEDPAHKPPSPHDLVYFEKSPNFCTYSGRLGTAGTAGRACNSSSPALDGCELLCCGRGHRTRTQRVTERCNCTFHWCCHVSCRNCTHTRVLHECL
modifications: conditioned medium from 293T cells
number of filopodia per cell relative to control: significant increase
